Data on five molecules can be found in article PMC5913134, “The IL-33-PIN1-IRAK-M axis is critical for type 2 immunity in IL-33-induced allergic airway inflammation” (Nature Communications, 2018).

For one experiment, the system named is PIN1-IRAK-M interaction. In words: Co-immunoprecipitation of PIN1 and IRAK-M. It counts as binding. Particulars: for PIN1 interaction (CO-IP), IRAK-M constructs: HEK293 cells, after IL-33 treatment. As for the experimental part:
Fig. 2 IL-33 induces IRAK-M phosphorylation and binding to PIN1. a GST PIN1 pulldown assay with DC2.4 cell extracts either non-treated or treated with IL-33 (100 ng/ml) or LPS (100ng/ml) for 1 h. […] The cells were washed with fresh medium and treated with 100 ng/ml IL-33 for the indicated times prior to IRAK-M immunoprecipitation. d DC2.4 cells stably expressing IRAK-M were treated with IL-33 and at the indicated time points were subjected to CO-IP using anti-PIN1 antibody and blotted for IRAK-M. e HEK293 cells were transfected with different IRAK-M constructs expressing the N’ terminal domain (aa1-220), the middle portion of the protein (aa220-440) or the C’ terminal domain (aa 440-630), and then treated with IL-33, followed by CO-IP for PIN1. f DC2.4 cells stably expressing IRAK-M were treated with IL-33 and subjected to GST or GST-PIN1 pull-down.
Cells from one 10-cm dish were homogenized in lysis buffer containing 150 mM NaCl, 1% NP-40, 0.5% deoxycholate, 0.1% SDS, 50 mM Tris-HCl (pH 7.7), 1 mM phenylmethylsulfonyl fluoride (PMSF), 1 mM dithiothreitol, and protease inhibitors. Clarified supernatants were incubated with pre incubated immobilized beads rProtein A agarose beads (RepliGen) premixed with PIN1, GFP or IRAK-M antibody or, as a control, IgG overnight at 4 °C. The beads were washed extensively with lysis buffer before elution in SDS sample buffer.

The subject of the next experiment is IRAK-M. In words: IRAK-M protein stability, cycloheximide chase. It counts as cell-based. Conditions: for IRAK-M half-life: cycloheximide chase. The procedure: Fig. 4 PIN1 increases IRAK-M protein stabilization. a After IRAK-M and GFP were coexpressed in WT and PIN1 KO MEFs for 24 h, cells were split equally into 5 dishes. 24 h later cells were treated with cyclohexamide and harvested to monitor IRAK-M, GFP and PIN1 levels at the time points indicated. b Quantification of 3 independent experiments as in a. c WT MEFs stably expressing the TET on inducible short hairpin for PIN1 (shPin1) or pLKO as a control, were expressed with IRAK-M, followed by induction with Doxycycline for 18 h prior to the cyclohexamide chase. d Quantification of 3 independent experiments as in c. e BMDCs from WT or PIN1 KO mice were treated with IL-33 and the levels of IRAK-M were monitored at different time points after induction. f Quantification of 3 independent experiments as in e. g PIN1 KO MEFs were expressed with IRAK-M alone or in combination with PIN1 or its mutants W34A or K63A for 24 h, followed by the cyclohexamide chase to assay IRAK-M stability. h Quantification of 3 independent experiments as in g. i IRAK-M or its different mutants; S110A, S110E and P111A were expressed in WT MEFs, followed by the cyclohexamide chase to assay IRAK-M stability. j Quantification of 3 independent experiments as in i. k IRAK-M or its different mutants were stably expressed in DC2.4 cells, followed by the cyclohexamide chase to monitor IRAK-M stability. l Quantification of 3 independent experiments as in k. The data were analyzed by a Student’s two-tailed t test and the values are reported as mean ± standard errors of the means (SEM). *- statistical significance (P < 0.05), **- significance (P < 0.01)

The next experiment deals with asthmatic patients. Briefly: Segmental allergen (Derp1) challenge in asthmatic patients. It counts as in vivo, human. The text has this:
Fig. 7 IRAK-M expression is elevated in asthmatic human samples after Derp1 segmental allergic challenge. a Representative H&E staining and PAS staining of lung biopsies before and after Derp1 segmental challenge, as well as BALF and brush cytospins before and after treatment stained with Giemsa (n = 4). b Cytospin slides of brushing, total BALF cells, BALF CD15 + and CD205 + cells samples were immune stained for IRAK-M. c Quantification of IRAK-M expression in total BALF cells, BALF CD15 + and CD205 + cells samples as in b using Velocity program. d Total BALF cells were immune stained for PIN1 and pS71PIN1 and quantified using Velocity program e. f RNA was extracted from BALF cellular contents and analyzed for the relative expression of Il6, Csf3, Cxcl2 and Ccl5 by qRT-PCR. The data were analyzed by a Student’s two-tailed t test and the values are reported as mean ± standard errors of the means (SEM). *- statistical significance (P < 0.05), **- significance (P < 0.01). Scale bar = 50 µm
For human subject study, non-smokers with a history of mild asthma with an FEV1 greater than 70% of predicted, using only intermittent beta-agonists for treatment, who were between the ages of 18 and 55 were recruited to undergo segmental allergen challenge via bronchoscopy. Participants were selected on the basis of both a positive methacholine PC20 < 8 mg/mL and a positive skin prick test to Dermatophagoides pternyssinus (DerP1). A positive intradermal that yielded a reaction at or below the concentration threshold of 0.1 AU/mL following the methods set forth in Parulekar et al., was also required, although only the DerP1 antigen was used.
After recoding baseline vitals, PO2, FEV1, PEFR, appropriate anesthetic medication was administered. Then, a fiberoptic bronchoscope with bronchoalveolar lavage (BAL) was performed by sequential instillation and removal of 5 aliquots of 50 mL normal saline in the lingula. Brushings and biopsies were taken after the BAL. The bronchoscope was then re-wedged on the contra lateral side (right middle lobe) in a readily identifiable sub-segment. A safety dose (100 × the minimum dose that caused reaction during the intradermal) of 5 mL of allergen in a prefilled syringe was instilled followed by 5 mL of air and the wedge was maintained for 5 minutes. Subject’s safety parameters were assessed after administration of the sub-threshold allergen dose. If the investigator determined the subject had well tolerated the safety dose, full dose of allergen (1000 × the minimum dose that caused reaction during the intradermal) in a pre-filled syringe was administered followed by 5 ml of air and the wedge was maintained for 5 min. Antigen lot to lot consistency was maintained between the participants intradermal skin test and segmental challenge. Participants were monitored for safety until 2 h after the procedure. After allergen challenge, if the subject developed systemic allergic reaction such as diffuse urticaria, angioedema, stridor, hypotension, syncope or any other serious adverse event, subject would be dropped from the study and only be followed up for safety reasons. Participants were not be allowed to leave for home until their condition was stable as assessed by the study physician.
Pre-bronchoscopy and bronchoscopy eligibility procedures were followed as detailed above prior to 2nd bronchoscopy. Specimens taken were BAL first, followed by brushings, and finally biopsies. These were taken where the segmental allergen challenge was placed (right middle lobe). Drug and post-procedure follow up and monitoring were followed as detailed above.

B1: S110A: IRAK-M mutant, Ser110 substituted to Ala (protein)
chain: MAGNCGARGALSAHTLLFDLPPALLGELCAVLDSCDGALGWRGLAERLSSSWLDVRHIEKYVDQGKSGTRELLWSWAQKNKTIGDLLQVLQEMGHRRAIHLITNYGAVLAPSEKSYQEGGFPNILFKETANVTVDNVLIPEHNEKGILLKSSISFQNIIEGTRNFHKDFLIGEGEIFEVYRVEIQNLTYAVKLFKQEKKMQCKKHWKRFLSELEVLLLFHHPNILELAAYFTETEKFCLIYPYMRNGTLFDRLQCVGDTAPLPWHIRIGILIGISKAIHYLHNVQPCSVICGSISSANILLDDQFQPKLTDFAMAHFRSHLEHQSCTINMTSSSSKHLWYMPEEYIRQGKLSIKTDVYSFGIVIMEVLTGCRVVLDDPKHIQLRDLLRELMEKRGLDSCLSFLDKKVPPCPRNFSAKLFCLAGRCAATRAKLRPSMDEVLNTLESTQASLYFAEDPPTSLKSFRCPSPLFLENVPSIPVEDDESQNNNLLPSDEGLRIDRMTQKTPFECSQSEVMFLSLDKKPESKRNEEACNMPSSSCEESWFPKYIVPSQDLRPYKVNIDPSSEAPGHSCRSRPVESSCSSKFSWDEYEQYKKE
Turning to B1, in the experiment with PIN1-IRAK-M interaction, the “PIN1 interaction (CO-IP), IRAK-M constructs” value was “abolished the PIN1-IRAK-M interaction”. In the experiment with IRAK-M (mutant IRAK-M, WT MEFs, reproduced in DC2.4 cells), the “decrease of IRAK-M protein stability” value is listed as ~ 50%.

B2: Derp1: segmental allergen of Dermatophagoides pteronyssinus (protein, UniProt P08176 99-320, looked up)
Peptidase 1: TNACSINGNAPAEIDLRQMRTVTPIRMQGGCGSCWAFSGVAATESAYLAYRNQSLDLAEQELVDCASQHGCHGDTIPRGIEYIQHNGVVQESYYRYVAREQSCRRPNAQRFGISNYCQIYPPNVNKIREALAQTHSAIAVIIGIKDLDAFRHYDGRTIIQRDNGYQPNYHAVNIVGYSNAQGVDYWIVRNSWDTNWGDNGYGYFAANIDLMMIEEYPYVVIL
For B2, the “immunological reaction (granulocyte infiltration, tissue remodeling)” value in the experiment on asthmatic patients (asthmatic patients, segmental Derp1, n = 4) was “massive immunological reaction”. For the same molecule, the “IRAK-M expression in bronchial epithelial cells” value in the experiment with asthmatic patients (biopsies, before and after Derp1 challenge) is “elevated”. In the experiment with asthmatic patients (brush cytospins, after Derp1 challenge), the “IRAK-M protein expression in lung brush samples” value is recorded as “greatly elevated”. Also, the “IRAK-M expression in CD15+ and CD205+ BALF cells” value with asthmatic patients (sorted eosinophils (CD15+) and dendritic/monocytes (CD205+), after Derp1) was “highly elevated”. Moreover, in the experiment on asthmatic patients (total BALF cytospins, Derp1), the PIN1 protein expression result is given as “did not seem to change” and the “pS71 PIN1 phosphorylation” value is listed as “decrease in pS71 phosphorylation”. Also, in the experiment with asthmatic patients (total BALF, after Derp1 challenge), the “IRAK-M expression in total BALF cells” value is “highly elevated”.

B3: IRAK-M N-terminal domain: N-terminal (aa 1-220) of IRAK-M (protein, UniProt Q8K4B2 1-220, looked up, fragment)
chain: MAGRCGARGALSPQLLLFDLPPALLGELCGILDSCDGPLGWRGLAERLSNSWLDVRHIEKYVNQGKSGTRELLWSWAQKNKTIGDLLEVLQDMGHQRAIHLIINYGVSWTPSVQTHHELPFPSFPPEVKHACRENDPGPLEPANVTVDNVLVPEHNEKGTLQKTPISFQSILEGTKHFHKDFLIGEGEIFEVYRVDIRNQAYAVKLFKQEKKMQLKKHWK
B3: in the experiment on PIN1-IRAK-M interaction, the “PIN1 interaction (CO-IP), IRAK-M constructs” value is given as “mainly evident”.

B4: IRAK-M: Interleukin receptor associated kinase M (protein, UniProt Q8K4B2 1-609, looked up)
Interleukin-1 …: MAGRCGARGALSPQLLLFDLPPALLGELCGILDSCDGPLGWRGLAERLSNSWLDVRHIEKYVNQGKSGTRELLWSWAQKNKTIGDLLEVLQDMGHQRAIHLIINYGVSWTPSVQTHHELPFPSFPPEVKHACRENDPGPLEPANVTVDNVLVPEHNEKGTLQKTPISFQSILEGTKHFHKDFLIGEGEIFEVYRVDIRNQAYAVKLFKQEKKMQLKKHWKRFLSELEVLLLFRHPHILELAAYFTETEKLCLVYPYMSNGTLFDRLQCTNGTTPLSWHVRISVLIGIAKAIQYLHNTQPCAVICGNVSSANILLDDQLQPKLTDFAAAHFRPNLEQQSSTINMTGGGRKHLWYMPEEYIRQGRLSVKTDVYSFGIVIMEVLTGCKVVLDDPKHVQLRDLLMELMEKRGLDSCLSFLDRKIPPCPRNFSAKLFSLAGRCVATKAKLRPTMDEVLSSLESTQPSLYFAEDPPTSLKSFRCPSPLFLDNVPSIPVEDDENQNNHSVPPKEVLGTDRVTQKTPFECSQSEVTFLGLDRNRGNRGSEADCNVPSSSHEECWSPELVAPSQDLSPTVISLGSSWEVPGHSYGSKPMEKRCSSGLFCSEHEQSKKQ
Take B4: the “PIN1 interaction (CO-IP), IRAK-M mutants” value in the experiment with PIN1-IRAK-M interaction (stably expressing DC2.4 cells, with/without IL-33) was “evident only after IL-33 stimulation”. The figures for the IRAK-M half-life in the experiment on IRAK-M (PIN1 KO MEFs) and with IRAK-M (WT MEFs) were less than 3 h and ~ 6 h, respectively. The “reduction of IRAK-M half-life” value in the experiment with IRAK-M (inducible PIN1 knock down (KD), MEFs) was “more than 50%”.

B5: PIN1: peptidyl-prolyl cis-trans isomerase PIN1 (protein, UniProt Q9QUR7 1-165, looked up)
Peptidyl-prolyl cis-trans …: MADEEKLPPGWEKRMSRSSGRVYYFNHITNASQWERPSGGSTVGGSSKNGQGEPAKVRCSHLLVKHSQSRRPSSWRQEKITRSKEEALELINGYIQKIKSGEEDFESLASQFSDCSSAKARGDLGPFSRGQMQKPFEDASFALRTGEMSGPVFTDSGIHIILRTE
For the molecule B5, in the experiment with IRAK-M (PIN1-deficient MEFs (text PIN1 KD, Fig. 4g legend PIN1 KO) co-expressing IRAK-M with PIN1 or mutant), the “increase in IRAK-M half-life” value is “more than 50%”.
